In series [1] the target is T1, EC1-2 domain of VE-cadherin.
T1 sequence (P33151 whole entry, species assumed, looked up): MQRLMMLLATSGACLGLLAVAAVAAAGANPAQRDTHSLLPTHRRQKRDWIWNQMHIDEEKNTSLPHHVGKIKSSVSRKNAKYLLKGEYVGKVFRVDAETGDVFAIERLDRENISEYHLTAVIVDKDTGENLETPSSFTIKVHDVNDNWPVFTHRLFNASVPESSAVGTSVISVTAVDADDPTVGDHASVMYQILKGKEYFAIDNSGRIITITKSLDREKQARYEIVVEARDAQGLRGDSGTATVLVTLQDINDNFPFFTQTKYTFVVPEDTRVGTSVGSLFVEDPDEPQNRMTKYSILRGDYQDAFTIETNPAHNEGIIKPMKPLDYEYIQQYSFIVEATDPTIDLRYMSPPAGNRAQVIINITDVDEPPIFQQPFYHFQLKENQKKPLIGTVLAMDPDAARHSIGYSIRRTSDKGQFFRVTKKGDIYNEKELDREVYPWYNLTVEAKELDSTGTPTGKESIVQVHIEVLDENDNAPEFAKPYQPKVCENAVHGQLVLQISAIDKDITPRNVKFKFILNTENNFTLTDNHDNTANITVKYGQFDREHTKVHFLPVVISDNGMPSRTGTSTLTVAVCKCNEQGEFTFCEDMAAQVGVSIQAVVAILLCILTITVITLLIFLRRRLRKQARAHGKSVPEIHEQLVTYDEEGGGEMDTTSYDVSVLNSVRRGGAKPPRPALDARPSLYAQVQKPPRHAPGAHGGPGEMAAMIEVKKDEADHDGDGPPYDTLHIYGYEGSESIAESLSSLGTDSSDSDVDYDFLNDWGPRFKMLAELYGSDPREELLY
The experiment in a line: SPR.

The series “crystal structure” concerns the molecule itself. The experiment in a line: crystal structure.

Residue numbers refer to the chain shown, from its start. Names may count otherwise. Bounds are passed on as bounds.

Experimental findings from article PMC6103731 (RNA Biology, 2017) are described below.

B1: human H130R T2-TrpRS (domain or fragment, UniProt P23381 97-471, looked up)
chain: GIDYDKLIVRFGSSKIDKELINRIERATGQRPHRFLRRGIFFSHRDMNQVLDAYENKKPFYLYTGRGPSSEAMHVGHLIPFIFTKWLQDVFNVPLVIQMTDDEKYLWKDLTLDQAYSYAVENAKDIIACGFDINKTFIFSDLDYMGMSSGFYKNVVKIQKHVTFNQVKGIFGFTDSDCIGKISFPAIQAAPSFSNSFPQIFRDRTDIQCLIPCAIDQDPYFRMTRDVAPRIGYPKPALLHSTFFPALQGAQTKMSASDPNSSIFLTDTAKQIKTKVNKHAFSGGRDTIEEHRQFGGNCDVDVSFMYLTFFLEDDDKLEQIRKDYTSGAMLTGELKKALIEVLQPLIAEHQARRKEVTDEIVKEFMTPRKLSFDFQ
In series [1], B1 registered a fold stronger binding affinity than WT T2-TrpRS of more than 50 fold and a kon of 2.71e+07 M⁻¹ s⁻¹. Also, the “stoichiometry N” value in the series “crystal structure” stood at 2.

B2: wild-type human T2-TrpRS (domain or fragment)
chain: B1 chain with R34H
In turn, B2 gave a kon in series [1] of 176000 M⁻¹ s⁻¹.
